Literature values, collected in PMC2744109.
Several values for one entry are separate records, joined by “and”; a condition that tells them apart may be missing. Equal values may be shown once.

Assays:
[1] = target: Factor VIII (Homo sapiens) (UniProt P00451)
[2] = target: LRP1 CR5-CR7 (Homo sapiens) (UniProt Q07954)
[3] = target: LRP1 CR7-CR8 (Homo sapiens) (UniProt Q07954); experiment: ITC

Chain of LRP1 (Q07954 20-4544): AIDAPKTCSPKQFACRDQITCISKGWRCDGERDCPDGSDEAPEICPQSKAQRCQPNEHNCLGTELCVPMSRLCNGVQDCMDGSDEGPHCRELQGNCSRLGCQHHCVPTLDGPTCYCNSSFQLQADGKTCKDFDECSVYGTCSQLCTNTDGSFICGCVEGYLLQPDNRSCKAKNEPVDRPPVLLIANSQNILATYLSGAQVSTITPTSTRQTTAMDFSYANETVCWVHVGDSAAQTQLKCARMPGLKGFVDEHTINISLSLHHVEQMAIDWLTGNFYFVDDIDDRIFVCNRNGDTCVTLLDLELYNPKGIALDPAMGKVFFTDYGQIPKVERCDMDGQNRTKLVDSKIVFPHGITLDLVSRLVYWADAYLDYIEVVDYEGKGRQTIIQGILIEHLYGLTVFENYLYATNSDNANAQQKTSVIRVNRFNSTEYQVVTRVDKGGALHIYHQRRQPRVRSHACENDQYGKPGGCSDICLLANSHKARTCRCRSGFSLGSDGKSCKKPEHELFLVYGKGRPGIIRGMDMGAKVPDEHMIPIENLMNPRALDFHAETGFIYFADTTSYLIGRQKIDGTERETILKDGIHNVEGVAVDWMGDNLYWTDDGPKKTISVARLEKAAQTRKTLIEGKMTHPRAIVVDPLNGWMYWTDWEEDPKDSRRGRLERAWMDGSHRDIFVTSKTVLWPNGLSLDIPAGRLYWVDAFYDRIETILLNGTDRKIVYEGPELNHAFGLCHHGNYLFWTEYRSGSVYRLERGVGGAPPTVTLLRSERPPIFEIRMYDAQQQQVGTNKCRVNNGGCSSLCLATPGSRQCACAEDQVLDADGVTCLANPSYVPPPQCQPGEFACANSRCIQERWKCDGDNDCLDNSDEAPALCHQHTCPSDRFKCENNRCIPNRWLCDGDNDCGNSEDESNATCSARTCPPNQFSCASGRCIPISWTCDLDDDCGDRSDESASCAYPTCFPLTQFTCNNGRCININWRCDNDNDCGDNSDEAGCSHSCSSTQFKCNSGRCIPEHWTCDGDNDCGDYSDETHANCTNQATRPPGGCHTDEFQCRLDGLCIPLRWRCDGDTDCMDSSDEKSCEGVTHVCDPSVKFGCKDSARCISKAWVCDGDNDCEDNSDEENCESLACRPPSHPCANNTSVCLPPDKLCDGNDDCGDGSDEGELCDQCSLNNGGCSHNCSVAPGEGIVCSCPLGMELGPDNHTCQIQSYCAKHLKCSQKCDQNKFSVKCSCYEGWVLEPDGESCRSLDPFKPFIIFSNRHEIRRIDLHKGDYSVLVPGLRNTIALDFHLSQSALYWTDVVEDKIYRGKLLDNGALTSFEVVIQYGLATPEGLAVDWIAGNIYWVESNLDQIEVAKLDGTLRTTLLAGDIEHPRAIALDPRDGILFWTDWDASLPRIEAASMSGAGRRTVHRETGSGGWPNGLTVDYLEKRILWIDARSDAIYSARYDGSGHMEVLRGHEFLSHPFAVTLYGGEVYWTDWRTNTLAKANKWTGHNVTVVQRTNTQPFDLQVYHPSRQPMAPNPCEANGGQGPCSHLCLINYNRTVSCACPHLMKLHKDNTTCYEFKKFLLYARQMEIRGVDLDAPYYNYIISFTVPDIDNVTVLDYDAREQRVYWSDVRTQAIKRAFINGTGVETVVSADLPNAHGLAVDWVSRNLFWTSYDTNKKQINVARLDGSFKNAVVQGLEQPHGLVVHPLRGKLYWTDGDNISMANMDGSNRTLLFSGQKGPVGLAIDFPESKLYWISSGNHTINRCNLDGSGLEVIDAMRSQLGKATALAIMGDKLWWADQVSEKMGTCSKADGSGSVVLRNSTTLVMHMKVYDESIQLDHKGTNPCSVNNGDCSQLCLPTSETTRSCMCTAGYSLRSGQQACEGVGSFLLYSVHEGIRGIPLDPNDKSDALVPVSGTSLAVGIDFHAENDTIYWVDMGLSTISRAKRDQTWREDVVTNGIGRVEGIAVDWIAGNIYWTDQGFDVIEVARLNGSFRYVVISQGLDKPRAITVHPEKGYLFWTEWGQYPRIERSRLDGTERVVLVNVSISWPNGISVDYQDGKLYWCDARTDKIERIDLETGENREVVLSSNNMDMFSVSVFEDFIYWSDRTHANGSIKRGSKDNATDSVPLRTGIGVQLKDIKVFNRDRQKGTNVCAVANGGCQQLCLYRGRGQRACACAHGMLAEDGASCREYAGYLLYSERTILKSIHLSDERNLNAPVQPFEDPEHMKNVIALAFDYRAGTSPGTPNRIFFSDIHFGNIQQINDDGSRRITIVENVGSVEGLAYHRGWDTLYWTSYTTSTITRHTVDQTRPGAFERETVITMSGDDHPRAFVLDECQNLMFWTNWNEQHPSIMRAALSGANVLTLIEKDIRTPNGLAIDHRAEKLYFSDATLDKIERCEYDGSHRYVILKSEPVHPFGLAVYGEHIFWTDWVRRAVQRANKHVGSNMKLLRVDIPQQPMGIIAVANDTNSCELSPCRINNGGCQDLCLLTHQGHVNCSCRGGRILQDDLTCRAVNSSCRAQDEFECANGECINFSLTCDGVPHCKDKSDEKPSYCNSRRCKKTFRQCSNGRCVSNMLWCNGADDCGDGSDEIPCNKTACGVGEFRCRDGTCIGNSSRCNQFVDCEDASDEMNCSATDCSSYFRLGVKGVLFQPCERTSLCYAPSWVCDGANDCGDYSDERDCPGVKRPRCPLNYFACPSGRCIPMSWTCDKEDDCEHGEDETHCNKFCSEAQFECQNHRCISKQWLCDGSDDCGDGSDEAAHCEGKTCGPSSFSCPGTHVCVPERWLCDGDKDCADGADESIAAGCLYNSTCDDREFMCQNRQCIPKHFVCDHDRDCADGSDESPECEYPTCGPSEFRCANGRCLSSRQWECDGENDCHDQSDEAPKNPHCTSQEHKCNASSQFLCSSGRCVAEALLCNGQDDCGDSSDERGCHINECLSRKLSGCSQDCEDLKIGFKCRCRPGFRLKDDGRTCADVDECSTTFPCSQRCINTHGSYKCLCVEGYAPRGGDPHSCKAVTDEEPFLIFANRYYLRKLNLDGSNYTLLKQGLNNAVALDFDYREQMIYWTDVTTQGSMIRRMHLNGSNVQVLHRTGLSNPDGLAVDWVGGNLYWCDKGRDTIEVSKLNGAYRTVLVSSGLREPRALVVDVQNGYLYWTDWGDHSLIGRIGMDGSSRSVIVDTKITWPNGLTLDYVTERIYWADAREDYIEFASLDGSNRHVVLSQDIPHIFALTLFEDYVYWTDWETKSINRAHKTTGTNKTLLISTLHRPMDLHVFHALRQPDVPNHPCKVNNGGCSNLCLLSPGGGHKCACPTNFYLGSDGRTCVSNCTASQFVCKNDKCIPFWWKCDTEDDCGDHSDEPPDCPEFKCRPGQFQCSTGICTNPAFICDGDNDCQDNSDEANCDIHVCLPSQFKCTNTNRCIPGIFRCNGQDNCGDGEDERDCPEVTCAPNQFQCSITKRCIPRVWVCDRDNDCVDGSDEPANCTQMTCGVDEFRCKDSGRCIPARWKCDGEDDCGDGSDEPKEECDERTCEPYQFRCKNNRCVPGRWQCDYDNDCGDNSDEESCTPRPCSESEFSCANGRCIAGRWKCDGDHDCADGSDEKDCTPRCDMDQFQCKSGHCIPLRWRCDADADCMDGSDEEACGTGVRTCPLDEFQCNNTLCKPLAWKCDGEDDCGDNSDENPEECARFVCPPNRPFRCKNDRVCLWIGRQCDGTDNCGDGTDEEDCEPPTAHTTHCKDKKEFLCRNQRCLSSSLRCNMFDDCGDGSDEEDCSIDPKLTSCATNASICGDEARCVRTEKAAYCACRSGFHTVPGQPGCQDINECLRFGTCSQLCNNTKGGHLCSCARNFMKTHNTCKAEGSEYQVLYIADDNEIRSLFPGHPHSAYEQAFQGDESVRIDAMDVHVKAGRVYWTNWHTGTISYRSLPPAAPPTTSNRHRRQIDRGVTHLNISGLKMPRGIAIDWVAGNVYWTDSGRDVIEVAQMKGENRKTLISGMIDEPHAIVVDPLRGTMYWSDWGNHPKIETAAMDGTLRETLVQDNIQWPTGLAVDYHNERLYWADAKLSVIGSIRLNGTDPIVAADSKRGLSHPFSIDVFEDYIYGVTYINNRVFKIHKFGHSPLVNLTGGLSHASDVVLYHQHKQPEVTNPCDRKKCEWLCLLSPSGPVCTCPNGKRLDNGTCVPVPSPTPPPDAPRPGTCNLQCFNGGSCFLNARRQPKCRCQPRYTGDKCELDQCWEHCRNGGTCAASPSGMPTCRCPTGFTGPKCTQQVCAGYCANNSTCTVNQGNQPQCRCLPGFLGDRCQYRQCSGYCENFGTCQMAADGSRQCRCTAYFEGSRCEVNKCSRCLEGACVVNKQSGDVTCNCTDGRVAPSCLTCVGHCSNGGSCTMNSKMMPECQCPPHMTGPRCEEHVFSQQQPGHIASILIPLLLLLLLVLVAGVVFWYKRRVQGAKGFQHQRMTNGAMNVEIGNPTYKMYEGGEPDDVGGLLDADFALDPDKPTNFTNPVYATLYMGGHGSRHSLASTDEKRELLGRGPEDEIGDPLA
Chain of UniProt P00451 (P00451 760-1332): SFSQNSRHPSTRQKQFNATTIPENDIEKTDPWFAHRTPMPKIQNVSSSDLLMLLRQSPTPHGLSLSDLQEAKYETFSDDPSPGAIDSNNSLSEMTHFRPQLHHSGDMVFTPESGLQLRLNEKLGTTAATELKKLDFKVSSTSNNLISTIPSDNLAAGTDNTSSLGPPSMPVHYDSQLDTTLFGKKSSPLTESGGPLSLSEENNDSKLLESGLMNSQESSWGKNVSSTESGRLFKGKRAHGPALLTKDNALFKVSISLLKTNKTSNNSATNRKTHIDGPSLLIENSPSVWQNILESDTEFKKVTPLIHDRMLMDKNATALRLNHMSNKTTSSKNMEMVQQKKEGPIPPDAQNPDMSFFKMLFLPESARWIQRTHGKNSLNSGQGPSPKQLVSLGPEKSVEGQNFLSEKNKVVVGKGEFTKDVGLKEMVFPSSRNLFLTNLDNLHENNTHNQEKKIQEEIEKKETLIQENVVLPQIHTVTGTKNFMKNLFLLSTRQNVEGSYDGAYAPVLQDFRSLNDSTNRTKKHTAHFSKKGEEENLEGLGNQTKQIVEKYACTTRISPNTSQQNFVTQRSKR

| Substance | Kd [1] | Kd [2] | Kd [3] |
| --- | --- | --- | --- |
| LRP1 (from UniProt Q07954) | 116 nM and 60 nM |  |  |
| RAP (from UniProt P30533) |  | 1.6 nM | 1000 nM |
| RAP D3 (from UniProt P30533) |  |  | 1000 nM |
